Laboratory results taken from patent publication US20220251233A1 (VERSEAU THERAPEUTICS, published 2022).

B1: 4N19 (antibody, V domains shown)
VH: EVQLQQSVAELVRPGASVKLSCTASGFSIKNTYMHWVKQRPEQGLEWIGRIDPANGYTQHAPKFQGKATIITDTSSNTAYLQLSSLTSEDTAIYYCAGGGPYYAMDYWGQGTSVTVSS
VL: DIVMTQAAPSVPVTPGESVSISCRSSKSLLHSNGDTYLYWFLQRPGQSPQLLIYRMSNLASGVPDRFSGSGSGTAFTLRISRVEAEDVGVYYCMQHLEYPFTFGAGTKLELK
notes: Murine anti-human CD53 mAb purified from subcloned hybridoma; detected with anti-mouse IgG
B2: 6M01 (antibody, V domains shown)
VH: EVLLQQSVADLVRPGASVKLSCTASGFNIKNTYMHWVSQRPEQGLEWIGRIDPANGYTQCAPSFQGKATITADTSSNTAYLHLSSLSSEDPAIYYCAGGSYYSAMDYWGQGTSVTVSS
VL: DIVMTQAAPSLPVTPGESVSISCRSSKSLLHSNGDTYLYWFLQRPGQSPQLLIYRMSNLASGVPDRFSGSGSGTAFTLRISRVEAEDVGVYYCMQHLEYPFTFGSGTKLEIK
notes: as for B1
B3: 5K03 (antibody, V domains shown)
VH: EVQLQQSVAELVRPGASVKLSCTTSGFNIKNTYMHWVKQRPEQGLEWIGRIDPANGYTECAPKFQGKATITADTSSNTAYLQLSSLTSEDTAIYYCTRSGEDYAMDYWGQGTSVTVSS
VL: DIVMTQAAPSVPVIPGESVSISCRSRKSLLHRNGDTYLYWFLQRPGQSPQVLIYRMSNLASGVPDRFSGSGSGTAFTLRISRVEAEDVGVYYCMQHLEYPYTFGGGTKLEIK
notes: as for B1
B4: 6K14 (antibody, V domains shown)
VH: EVQLQQSGADLVRPGASVKLSCTASGFNIKDDYIHWVKQRPVQGLEWIGRIDPANGNTKYAPMFRGKATITADTSSNTAYLQLSSLTSEDTAVYYCARSGTGAMDYWGQGTSVTVSS
VL: DIVMTQAAPSVFVTPGESVSISCRSSKSLLHSNGDTYFYWFLQRPGQSPQLLIYRMSNLASGVPDRFSGSGSTTAFTLRISRVEAEDVGVYYCMQHLEFPLTFGAGTKLELK
notes: as for B1
B5: 2M22 (antibody, V domains shown)
VH: EGQLQQSGSELVRPGASVKLSCTASGFNIKDDYVHWVKKRPEQGLEWIGRIDPANGYSHYVPKFHDKATITADTSSNTAYLQLNSLTSDDTAVYYCASGSGSYAMDYWGQGTSVTVSS
VL: EIVMTQAAPSVPVTPGESVSISCRSSKSLLHSNGDTYLYWFLQRPGQSPQLLIYRMSNVASGVPDRFSGSGSGTAFTLRISRVETEDVGVYYCMQHLESPYTFGGGTKLEIK
notes: as for B1
B6: 10F09 (antibody, V domains shown)
VH: EVQLQQSVAELVRPGASVKLSCTASGFNIKNTYMHWVKQRPAQGLEWIGKIDPANGFTKHAPRFQGKATITSDTSSNTAYLQLSSLTSEDTAIYYCASGWDAAFAYWGQGTLVTVSA
VL: DIVMTQAAPSVPVTPGESVSISCRSSKSLLHSNGDTYLYWFLQRPGQSPQLLIYRMSKLASGVPDRFSGSGSGTAFTLRISRVEAEDVGVYYCMQHLEHPLTFGAGTKLELK
notes: as for B1
B7: 5M13 (antibody, V domains shown)
VH: EVQLQQSVAELVRPGASVKLSCTASGFNIKNTYMHWVKQRPEQGLEWIGRLDPANGYTQSAPKFQGKATVTADTSSNTAYLHLSSLTSEDTAIYYCLYGNYYYAMAYWGQGTSVTVSS
VL: DVVMTQAAPSIPVTPGESVSISCRSSKSLLHSNGDTYLYWFLQRPGQSPQLLIYRMSNLASGVPDRFSGSGSGTAFTLRISRVEAEDVGVYYCMQHLEYPYTFGGGTKLEIK
notes: as for B1
B8: 5F16 (antibody, V domains shown)
VH: EVQLQQSGAELVRPGASVKLSCTASGFNIEDDYVHWVKQRPEQGLEWIGRIDPANGNIKYAPKFQDKATITADTSSNIAYLQLSSLTAEDTAVYYCARSGTGAMDYWGQGTSVTVSS
VL: DIVMTQAAPSVPVTPGESVSISCRSSKSLLHSNGDTYFYWFLQRPGQSPQLLIYRMSNLASGVPDRFSGSGSGTAFTLRISRVEAEDVGVYYCMQHLEFPLTFGVGTKLELK
notes: as for B1
B9: 4O24 (antibody, V domains shown)
VH: EVQLQQSVAELVRPGASVKLSCTASAFNIKNTYMHWVKQRPAQGLEWIGKIDPANGYTKYAPRFQDKATITADTSSNTAYLQLSSLTSEDTAIYYCASGRDAAFAYWGQGTQVTVSA
VL: DIVMTQAAPSVPVTPGESVSISCRSSKSLLHSNGDTYLYWFLQRPGQSPQLLIYRMSNLASGVPDRFSGSGSGTAFTLRISRVEAEDVGVYYCMQHLEHPLTFGAGTKLELK
notes: as for B1
B10: 1L17 (antibody, V domains shown)
VH: EVQLQQSVAELVRPGASVKLSCTASGFNIKNTYMHWVKQRPEQGLEWIARIDPANGYSQYAPKFQGKATITADTSSNTAYLQLSSLTSEDTAIFYCAGGSTYSAMDYWGQGTSVTVSS
VL: DIVMTQAAPSVPVTPGESVSISCRSSKSLLHSNGDTYLYWFLQRPGQSPQLLIYRMSNLASGVPDRFSGSGSGTAFTLRISRVEAEDVGVYYCMQHLEYPFTFGGGTKLEIK
notes: as for B1
B11: 4B19 (antibody, V domains shown)
VH: QVQLQQSGTELMKPGASVKLSCKATGYTFTGYWIEWVKQRPGHGLEWIGEILPGSYSTNYNEKFKGKATFTADSSSNTAYMQLSSLTTEDSAIYYCTRDSNYEWFDVWGTGTTVTVSS
VL: DVVMTQTPLSLSVTIGQPASISCKSSQSLLHRDGETYLNWLLQRPGQSPKLLIYLVSKLESGIPDRFSGSGSGTDFTLKISRVEVEDLGVYYCLQHTHFPYTFGSGTKLEIK
notes: as for B1
B12: 6J17 (antibody, V domains shown)
VH: EVQLQQSGAELVRPGASVKLSCTASGFNIKDDYMHWVRQRPKQGLEWIGRVDPANGNTKYAPKFQDKATMTADTSSNTAYLRLSSLTSEDTAVYYCAGYFYYSHDGGFACWGQGTLVTVSA
VL: DIVMTQGSPSIPVTPGESVSISCRSSKSLLHRNGNIYLYWFLQRPGQSPQRLIYYMSNLASGVPDRFSGRGSGTDFTLRISRVEAEDVGVYYCMQGLEYPFTFGTGTKLEIK
notes: as for B1
B13: 3A21 (antibody, V domains shown)
VH: EVQLQQSGAELVRPGASVKLSCTASGFNIKDDYMHWVKQRPEQGLEWIGLIDPENGYAEYASKFQGKATITADTSSNTANLQLNSLTSEDTAVYYCTTWGLLRNYVMDYWGQGTSVTVSS
VL: DIVMTQAAFSNPVTLGTSASISCSSSKSLLHSNGITYLYWYLQRPGQSPQLLIYRMSNLASGVPDRFSGSGSGTDFTLRVNRVEADDVGVYYCAQMLERPRTFGGGTKLEIK
notes: as for B1
B14: 9E17 (antibody, V domains shown)
VH: QLQQSGAEFVRPGASVKLSCTASGFNIKDDYIHWVKQRPEQGLEWIGRIDPANGYTEYAPKFQGKATITSDTSSNTAYLQLSSLTSEDTAVFYCVWHWDYWGQGTTLTVSS
VL: DIVMTQAAFSNPVTLGTSASISCSSYKSLQHNNGITYLYWFLQRPGQSPHLLIYRMSNLASGVPDRFSGSGSGTDFTLRISRVEAEDVGVYYCAQMLERPFTFGTGTKLEIK
notes: as for B1
B15: 10N22 (antibody, V domains shown)
VH: EVQLQQSGPELVKPGASVKISCKASGYTFTGYFMNWVKQSHGKSLEWIGDLNPNNGGTNFNQRFKGKATLTVDKSSSTAYMELRSLTSEDSAVYYCARDGYDGGYAMDYWGQGTSVTVSS
VL: DVLMTQTPLSLPVSLGDQASISCRSSQNIVHSSGNTYLEWYLQKPGQSPKLLIFKVSNRFSGVPDRFSGSGSGTDFTLKISRVEAEDLGVYYCFQGSHVPYTFGGGTKLEIK
notes: as for B1
B16: 10J06 (antibody, V domains shown)
VH: QVQLQQPGAELVKPGASVKLSCKASGYTFTSYWMHWVKQRPGQGLEWIGMIHPNSGSSNHNGKFRGKATLTVDKSSSTAYIQLSSLTSEDSAVYYCARDDYAETMDYWGQGTSVTVSS
VL: DVVMTQTPLSLSITIGQPASISCKSSQSLLYSDGKTYLNWFQQRPGQSPKRLMYQVSKLDPGIPDRFSGSGSETDFTLKISRVEAEDLGVYYCLQGTYYPWTFGGGTKLEIK
notes: as for B1

target: T1, Human CD53-CHO (full-length human CD53 over-expressed on CHO-K1 cells) (human, UniProt P19397 1-219); experiment: flow cytometry on CD53-CHO cells, anti-mouse IgG AF647 gMFI, 4-parameter fit
T1 construct: Tetraspanin cell-surface antigen
T1 sequence: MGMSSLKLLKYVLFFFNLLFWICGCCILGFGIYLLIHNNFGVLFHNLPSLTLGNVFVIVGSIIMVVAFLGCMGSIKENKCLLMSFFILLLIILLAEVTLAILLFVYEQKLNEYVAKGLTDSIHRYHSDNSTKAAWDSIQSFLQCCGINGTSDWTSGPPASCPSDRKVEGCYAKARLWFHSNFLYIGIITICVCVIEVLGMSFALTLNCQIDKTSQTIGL
Experimental: Binding of anti-human CD53 antibodies was determined by flow cytometry for their ability to bind human CD53-CHO cells compared to parental CHO-K1 cells. All assay steps were performed in FACS buffer (phosphate buffered saline pH 7.4 supplemented with 2% fetal bovine serum). Twenty thousand cells were seeded in 384-well plates and washed twice with ice cold buffer. Cells were incubated with purified antibodies titrated 3-fold from 200 nM to 0.09 nM at 4° C. for 1 hour with gentle agitation, then washed twice with FACS buffer and incubated with anti-mouse IgG Alexa Fluor® 647 and incubated at 4° C. for 40 minutes. Cells were washed twice and resuspended in FACS buffer. Analysis was preformed on the IntelliCyt® iQue Screener and gMFI values for Alexa Fluor® 647 were generated. EC50 values were determined in GraphPad Prism8. Concentration was transformed from nM to Log 10 nM and curves were fit with a nonlinear regression of log(agonist) vs. response−Variable slope (four parameters) or Y=Bottom+(Top−Bottom)/(1+10\hat{ }((LogEC50−X)*HillSlope)). EC50 values for all anti-human CD53 antibodies can be found in Table 6, and representative binding curves can be found in FIG. 7. Binding to CD53-CHO is represented by closed symbols and binding to parental CHO-K1 cells is represented by open symbols.

| Binder | EC50 [nM] |
| --- | --- |
| B1 | 2.5 |
| B2 | ~2 |
| B3 | ~2 |
| B4 | ~3 |
| B5 | ~0.3 |
| B6 | 25.4 |
| B7 | 11.1 |
| B8 | ~3 |
| B9 | 8.1 |
| B10 | ~2 |
| B11 | 36 |
| B12 | ~23 |
| B13 | 2.1 |
| B14 | 2.1 |
| B15 | ~8 |
| B16 | 82.5 |
